Assay results taken from PMC9990171 (2023).

B1: 10D12 bivalent human heavy-chain-only antibody (HCAb) (antibody, V domains shown)
VH: EVQLVETGGGLIQPGGSLRLSCAVSGFTVSLNYMSWVRQAPGKGLEWVSSIYSGGSTFYADSVKGRFTISRDNSKNTLYLQMNSLRAEDTAVYYCARGLGFGELPPFDFWGQGTLVTVSS
B2: 11C12 bivalent human heavy-chain-only antibody (HCAb) (antibody, V domains shown)
VH: EVQLVESGGGLVQPGGSLRLSCAASGFTFSSSWMYWVRHIPGKGLEWVSRTTSDVASTFYADSVKGRFTVSRDNAKNMLYLQMNSLRAEDTAVYYCTRDFHDLWSGYYNHWGQGTLVTVSS
B3: 10H7 bivalent human heavy-chain-only antibody (HCAb) (antibody, V domains shown)
VH: EVQLVESGGGLIQPGGSLRLSCAASGFTVSNNYMAWVRQAPGKGLEWISVIYANGNTYYADSVKGRFTISRDNSKNVLFLQMSGLRAEDTAVYYCSSRYGSGSEELYDIWGQGTMVTVSS
B4: 14D2 bivalent human heavy-chain-only antibody (HCAb) (antibody, V domains shown)
VH: EVQLVETGGGLIQPGGSLRLSCAASGFQVSNVYMSWVRQAPGKGQEWVSVLYSGGNTYYADSVKGRFTISRDNSKNMVYLQMNSLRVEDTAVYYCARGWEGVTGTTGPWGQGTLVTVSS
B5: 7D1 bivalent human heavy-chain-only antibody (HCAb) (antibody, V domains shown)
VH: EVQLVETGGGLIQPGGSLRLSCAASGFQVSSSYMSWVRQAPGKGLEWVSVIYSGGGTYYADSVKGRFTISRDISKNTLYLQMNNLRAEDTAMYYCARGWTGVTATTGPWGQGTLVTVSS

Columns and labels:
[1] = molecular target: SARS-CoV-2 S receptor binding domain (RBD) (SARS-CoV-2 (Wuhan-Hu-1), UniProt P0DTC2 329-538); experiment: ELISA
[2] = molecular target: SARS-CoV-2 S N-terminal domain (NTD) (SARS-CoV-2 (Wuhan-Hu-1), UniProt P0DTC2 14-294); experiment: ELISA

Binder | EC50 [1] [ng/mL] | EC50 [2] [µg/mL]
B1 | 3.22 | 
B2 |  | 0.181
B3 | 3.09 | 
B4 | 3.48 | 
B5 | 4.11 | 
